Measurements from patent US20250339531A1, “DUX4 POLYPEPTIDES AND NUCLEIC ACIDS FOR TREATING INFLAMMATORY AND AUTOIMMUNE CONDITIONS” (Fred Hutchinson Cancer Center, priority 2021, published 2025).

Test system: proteins that co-immunoprecipitated with DUX4-CTD constructs expressed in MB135 myoblasts
Test: LC-MS of proteins co-immunoprecipitated with DUX4-CTD (Table 1) and western validation
Type: binding, human
Parameters: key to 4. mL1dL2 + Dox + IFNG / 4. + IFNG mix / 4. longCTD + Dox + IFNG / 3. + IFNg + Dox longCTD / 3. + Dox longCTD / 3. + IFNG longCTD: peptide-spectrum matches (PSMs) per protein
Settings: kind of count not given; for 4. mL1dL2 + Dox + IFNG: LC-MS value per protein co-immunoprecipitated with DUX4-CTD construct mL1dL2 in MB135 myoblasts; for 4. + IFNG mix: LC-MS value per protein co-immunoprecipitated from MB135 myoblasts, + IFNG mix sample (no Dox)
In short: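 Two independent experiments compared uninduced, doxycycline and doxycycline+IFNG MB135iDUX4-CTD (plus MB135iDUX4mL1dL2) myoblasts. Anti-FLAG pulldowns (3 h, 4 °C) were eluted in LDS buffer for western validation or with FLAG peptide for trypsin digestion and Orbitrap LC-MS; hits needed ≥2 PSMs in both experiments, ranked by total PSMs.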

Molecule	4. mL1dL2 + Dox + IFNG	4. + IFNG mix
NAP1L1 (protein) ADIDNKEQSELDQDLDDVEEVEEEETGEETKLKARQLTVQMMQNPQILAALQERLDGLVETPTGYIESLPRVVKRRVNALKNLQVKCAQIEAKFYEEVHDLERKYAVLYQPLFDKRFEIINAIYEPTEEECEWKPDEEDEISEELKEKAKIEDEKKDEEKEDPKGIPEFWLTVFKNVDLLSDMVQEHDEPILKHLKDIKVKFSDAGQPMSFVLEFHFEPNEYFTNEVLTKTYRMRSEPDDSDPFSFDGPEIMGCTGCQIDWKKGKNVTLKTIKKKQKHKGRGTVRTVTKTVSNDSFFNFFAPPEVPESGDLDDDAEAILAADFEIGHFLRERIIPRSVLYFTGEAIEDDDDDYDEEGEEADEEGEEEGDEENDPDYDPKKDQNPAEC	2	–
NONO (protein, UniProt Q15233 1-471, looked up) Non-POU domain-containing …: MQSNKTFNLEKQNHTPRKHHQHHHQQQHHQQQQQQPPPPPIPANGQQASSQNEGLTIDLKNFRKPGEKTFTQRSRLFVGNLPPDITEEEMRKLFEKYGKAGEVFIHKDKGFGFIRLETRTLAEIAKVELDNMPLRGKQLRVRFACHSASLTVRNLPQYVSNELLEEAFSVFGQVERAVVIVDDRGRPSGKGIVEFSGKPAARKALDRCSEGSFLLTTFPRPVTVEPMDQLDDEEGLPEKLVIKNQQFHKEREQPPRFAQPGSFEYEYAMRWKALIEMEKQQQDQVDRNIKEAREKLEMEMEAARHEHQVMLMRQDLMRRQEELRRMEELHNQEVQKRKQLELRQEEERRRREEEMRRQQEEMMRRQQEGFKGTFPDAREQEIRMGQMAMGGAMGINNRGAMPPAPVPAGTPAPPGPATMMPDGTLGLTPPTTERFGQAATMEGIGAIGGTPPAFNRAAPGAEFAPNKRRRY	–	1
G3BP2 (protein) VMEKPSPLLVGREFVRQYYTLLNKAPEYLHRFYGRNSSYVHGGVDASGKPQEAVYGQNDIHHKVLSLNFSECHTKIRHVDAHATLSDGVVVQVMGLLSNSGQPERKFMQTFVLAPEGSVPNKFYVHNDMFRYEDEVFGDSEPELDEESEDEVEEEQEERQPSPEPVQENANSGYYEAHPVTNGIEEPLEESSHEPEPEPESETKTEELKPQVEEKNLEELEEKSTTPPPAEPVSLPQEPPKAFSWASVTSKNLPPSGTVSSSGIPPHVKAPVSQPRVEAKPEVQSQPPRVREQRPRERPGFPPRGPRPGRGDMEQNDSDNRRIIRYPDSHQLFVGNLPHDIDENELKEFFMSFGNVVELRINTKGVGGKLPNFGFVVFDDSEPVQRILIAKPIMFRGEVRLNVEEKKTRAARERETRGGGDDRRDIRRNDRGPGGPRGIVGGGMMRDRDGRGPPPRGGMAQKLGSGRGTGQMEGRFTGQRR	1	–
CAPRIN1 (protein) PSATSHSGSGSKSSGPPPPSGSSGSEAAAGAGAAAPASQHPATGTGAVQTEAMKQILGVIDKKLRNLEKKKGKLDDYQERMNKGERLNQDQLDAVSKYQEVTNNLEFAKELQRSFMALSQDIQKTIKKTARREQLMREEAEQKRLKTVLELQYVLDKLGDDEVRTDLKQGLNGVPILSEEELSLLDEFYKLVDPERDMSLRLNEQYEHASIHLWDLLEGKEKPVCGTTYKVLKEIVERVFQSNYFDSTHNHQNGLCEEEEAASAPAVEDQVPEAEPEPAEEYTEQSEVESTEYVNRQFMAETQFTSGEKEQVDEWTVETVEVVNSLQQQPQAASPSVPEPHSLTPVAQADPLVRRQRVQDLMAQMQGPYNFIQDSMLDFENQTLDPAIVSAQPMNPTQNMDMPQLVCPPVHSESRLAQPNQVPVQPEATQVPLVSSTSEGYTASQPLYQPSHATEQRPQKEPIDQIQATISLNTDQTTASSSLPAASQPQVFQAGTSKPLHSSGINVNAAPFQSMQTVFNMNAPVPPVNEPETLKQQNQYQASYNQSFSSQPHQVEQTELQQEQLQTVVGTYHGSPDQSHQVTGNHQQPPQQNTGFPRSNQPYYNSRGVSRGGSRGARGLMNGYRGPANGFRGGYDGYRPSFSNTPNSGYTQSQFSAPRDYSGYQRDGYQQNFKRGSGQSGPRGAPRGRGGPPRPNRGMPQMNTQQVN	1	–
TRIM28 (protein) AASAAAASAAAASAASGSPGPGEGSAGGEKRSTAPSAAASASASAAASSPAGGGAEALELLEHCGVCRERLRPEREPRLLPCLHSACSACLGPAAPAAANSSGDGGAAGDGTVVDCPVCKQQCFSKDIVENYFMRDSGSKAATDAQDANQCCTSCEDNAPATSYCVECSEPLCETCVEAHQRVKYTKDHTVRSTGPAKSRDGERTVYCNVHKHEPLVLFCESCDTLTCRDCQLNAHKDHQYQFLEDAVRNQRKLLASLVKRLGDKHATLQKSTKEVRSSIRQVSDVQKRVQVDVKMAILQIMKELNKRGRVLVNDAQKVTEGQQERLERQHWTMTKIQKHQEHILRFASWALESDNNTALLLSKKLIYFQLHRALKMIVDPVEPHGEMKFQWDLNAWTKSAEAFGKIVAERPGTNSTGPAPMAPPRAPGPLSKQGSGSSQPMEVQEGYGFGSGDDPYSSAEPHVSGVKRSRSGEGEVSGLMRKVPRVSLERLDLDLTADSQPPVFKVFPGSTTEDYNLIVIERGAAAAATGQPGTAPAGTPGAPPLAGMAIVKEEETEAAIGAPPTATEGPETKPVLMALAEGPGAEGPRLASPSGSTSSGLEVVAPEGTSAPGGGPGTLDDSATICRVCQKPGDLVMCNQCEFCFHLDCHLPALQDVPGEEWSCSLCHVLPDLKEEDGSLSLDGADSTGVVAKLSPANQRKCERVLLALFCHEPCRPLHQLATDSTFSLDQPGGTLDLTLIRARLQEKLSPPYSSPQEFAQDVGRMFKQFNKLTEDKADVQSIIGLQRFFETRMNEAFGDTKFSAVLVEPPPMSLPGAGLSSQELSGGPGDGP	8	1
DDX3X (protein) SHVAVENALGLDQQFAGLDLNSSDNQSGGSTASKGRYIPPHLRNREATKGFYDKDSSGWSSSKDKDAYSSFGSRSDSRGKSSFFSDRGSGSRGRFDDRGRSDYDGIGSRGDRSGFGKFERGGNSRWCDKSDEDDWSKPLPPSERLEQELFSGGNTGINFEKYDDIPVEATGNNCPPHIESFSDVEMGEIIMGNIELTRYTRPTPVQKHAIPIIKEKRDLMACAQTGSGKTAAFLLPILSQIYSDGPGEALRAMKENGRYGRRKQYPISLVLAPTRELAVQIYEEARKFSYRSRVRPCVVYGGADIGQQIRDLERGCHLLVATPGRLVDMMERGKIGLDFCKYLVLDEADRMLDMGFEPQIRRIVEQDTMPPKGVRHTMMFSATFPKEIQMLARDFLDEYIFLAVGRVGSTSENITQKVVWVEESDKRSFLLDLLNATGKDSLTLVFVETKKGADSLEDFLYHEGYACTSIHGDRSQRDREEALHQFRSGKSPILVATAVAARGLDISNVKHVINFDLPSDIEEYVHRIGRTGRVGNLGLATSFFNERNINITKDLLDLLVEAKQEVPSWLENMAYEHHYKGSSRGRSKSSRFSGGFGARDYRQSSGASSSSFSSSRASSSRSGGGGHGSSRGFGGGGYGGFYNSDGYGGNYNSQGVDWWGN	2	1
KANK2 (protein) MAQVLHVPAPFPGTPGPASPPAFPAKDPDPPYSVETPYGYRLDLDFLKYVDDIEKGHTLRRVAVQRRPRLSSLPRGPGSWWTSTESLCSNASGDSRHSAYSYCGRGFYPQYGALETRGGFNPRVERTLLDARRRLEDQAATPTGLGSLTPSAAGSTASLVGVGLPPPTPRSSGLSTPVPPSAGHLAHVREQMAGALRKLRQLEEQVKLIPVLQVKLSVLQEEKRQLTVQLKSQKFLGHPTAGRGRSELCLDLPDPPEDPVALETRSVGTWVRERDLGMPDGEAALAAKVAVLETQLKKALQELQAAQARQADPQPQAWPPPDSPVRVDTVRVVEGPREVEVVASTAAGAPAQRAQSLEPYGTGLRALAMPGRPESPPVFRSQEVVETMCPVPAAATSNVHMVKKISITERSCDGAAGLPEVPAESSSSPPGSEVASLTQPEKSTGRVPTQEPTHREPTRQAASQESEEAGGTGGPPAGVRSIMKRKEEVADPTAHRRSLQFVGVNGGYESSSEDSSTAENISDNDSTENEAPEPRERVPSVAEAPQLRPAGTAAAKTSRQECQLSRESQHIPTAEGASGSNTEEEIRMELSPDLISACLALEKYLDNPNALTERELKVAYTTVLQEWLRLACRSDAHPELVRRHLVTFRAMSARLLDYVVNIADSNGNTALHYSVSHANFPVVQQLLDSGVCKVDKQNRAGYSPIMLTALATLKTQDDIETVLQLFRLGNINAKASQAGQTALMLAVSHGRVDVVKALLACEADVNVQDDDGSTALMCACEHGHKEIAGLLLAVPSCDISLTDRDGSTALMVALDAGQSEIASMLYSRMNIKCSFAPMSDDESPTSSSAEE	1	–
RNH1 (protein) SLDIQSLDIQCEELSDARWAELLPLLQQCQVVRLDDCGLTEARCKDISSALRVNPALAELNLRSNELGDVGVHCVLQGLQTPSCKIQKLSLQNCCLTGAGCGVLSSTLRTLPTLQELHLSDNLLGDAGLQLLCEGLLDPQCRLEKLQLEYCSLSAASCEPLASVLRAKPDFKELTVSNNDINEAGVRVLCQGLKDSPCQLEALKLESCGVTSDNCRDLCGIVASKASLRELALGSNKLGDVGMAELCPGLLHPSSRLRTLWIWECGITAKGCGDLCRVLRAKESLKELSLAGNELGDEGARLLCETLLEPGCQLESLWVKSCSFTAACCSHFSSVLAQNRFLLELQISNNRLEDAGVRELCQGLGQPGSVLRVLWLADCDVSDSSCSSLAATLLANHSLRELDLSNNCLGDAGILQLVESVRQPGCLLEQLVLYDIYWSEEMEDRLQALEKDKPSLRVIS	4	–
